Test results: US20050227306A1, “Fluorescence polarization assay to detect protease cleavage” (priority 2003, published 2005)

Assays:
Assay type in all cases: biochemical, E. coli
[1] = test system: substrate 21-F (His6-tetraCys-X-MBP); experiment: Fluorescence anisotropy proteolysis assay with substrate 21-F; conditions: initial rate by fluorescence anisotropy, normalized to the rate of the protease with its preferred cognate substrate
Source text: (§1) All protease substrates were expressed in E. coli Rosetta pLacI Rare to provide compensation for rare codons (see Kirienko et al. (2004) Biochemistry (Mosc) 69:527-535; available commercially from Novagen, a wholly-owned subsidiary of EMD Biosciences, Inc., Madison, Wis.). The expression was done in 2-L PET bottles (Millard et al. (2003) Protein Expr. Purif. 29:311-320). The protein purification followed typical IMAC purification procedures (see Sambrook & Russell, supra) including elution in an imidazole gradient from 0-350 mM. After SDS-PAGE analysis, appropriate fractions were pooled and desalted into 20 mM phosphate, pH 7.5, containing 100 mM NaCl and 0.3 mM TCEP. […]
(§2) Protease assays were conducted using a combination of 20 μM unlabeled and 40 nM labeled protease substrates unless noted otherwise. […] This decreased the amount of time between mixing and measurement to less than three minutes and allowed the fluorescence anisotropy measured at the first time point to closely approximate the anisotropy of the intact fusion protein. […]
(§3) Fluorescence anisotropy was measured using a Tecan 384 Ultra plate spectrofluorimeter. Excitation was at 485 nm (25 nm bandpass) and emission was measured at 525 nm (20 nm bandpass). […] See J. Lakowicz, “Principles of fluorescence spectroscopy,” Kluwer Academic/Plenum Publishers, New York, 1999. […]

[2] = test system: substrate 22-F (His6-tetraCys-X-MBP); experiment: Fluorescence anisotropy proteolysis assay with substrate 22-F; conditions: initial rate by fluorescence anisotropy, normalized to the rate of the protease with its preferred cognate substrate
Source text: as §1, §2, §3

[3] = test system: substrate 23-F (His6-tetraCys-X-MBP); experiment: Fluorescence anisotropy proteolysis assay with substrate 23-F; conditions: for Relative rate of reaction, substrate 23F: initial rate by fluorescence anisotropy, normalized to the rate of the protease with its preferred cognate substrate
Source text: as §1, with “TCEP. Proteins were concentrated to a final concentration of 300-600 μM using centrifugal concentrators. Glycerol (50% v/v) was added to all protease substrates except 26-F and frozen at −20° C. The Arabidopsis targets At3g03410 (expressed from pVP14) and At3g16990 (expressed from pVP15) were flash frozen as drops in liquid nitrogen and stored at −80° C.” for “TCEP.”
as §2
(§4) Fluorescence anisotropy was measured using a Tecan 384 Ultra plate spectrofluorimeter. Excitation was at 485 nm (25 nm bandpass) and emission was measured at 525 nm (20 nm bandpass). […] The observed anisotropy is the sum of the anisotropy of the individual fluorescent components, or robs=Σfiri, where robs, is the observed anisotropy, fi is the fractional fluorescence intensity of component i, and ri is the anisotropy of component i. See J. Lakowicz, “Principles of fluorescence spectroscopy,” Kluwer Academic/Plenum Publishers, New York, 1999. […]

[4] = test system: substrate 24-F (His6-tetraCys-X-MBP); experiment: Fluorescence anisotropy proteolysis assay with substrate 24-F; conditions: initial rate by fluorescence anisotropy, normalized to the rate of the protease with its preferred cognate substrate
Source text: as §1, §2, §3

[5] = test system: substrate 25-F (His6-tetraCys-X-MBP); experiment: Fluorescence anisotropy proteolysis assay with substrate 25-F; conditions: initial rate by fluorescence anisotropy, normalized to the rate of the protease with its preferred cognate substrate
Source text: as §1, §2, §3

[6] = test system: substrate 26-F (His6-tetraCys-X-MBP); experiment: Fluorescence anisotropy proteolysis assay with substrate 26-F; conditions: for Relative rate of reaction, substrate 26F: initial rate by fluorescence anisotropy, normalized to the rate of the protease with its preferred cognate substrate
Source text: as §1, with “TCEP. Proteins were concentrated to a final concentration of 300-600 μM using centrifugal concentrators. Glycerol (50% v/v) was added to all protease substrates except 26-F and frozen at −20° C. The Arabidopsis targets At3g03410 (expressed from pVP14) and At3g16990 (expressed from pVP15) were flash frozen as drops in liquid nitrogen and stored at −80° C.” for “TCEP.”
as §2, §4

[7] = test system: substrate 21-F (His6-tetraCys-X-MBP); experiment: SDS-PAGE analysis of proteolysis of substrate 21-F; conditions: incubated 16 h (overnight)
Protocol: FIG. 22 is a photograph of a gel depicting SDS-PAGE analysis of protease substrates incubated with Factor Xa and TEV protease for 16 h. Lane M, molecular weight standards of 31 and 45 kDa. Lanes 1-5, Factor Xa with substrates 21-F, 22-F, 23-F, 24-F and 25-F, respectively. Lanes 6-10, trypsin with substrates 21-F, 22-F, 23-F, 24-F and 25-F, respectively. Lanes 11-14, TEV protease with substrates 21-F, 22-F, 23-F and 24-F, respectively.
The intensity of protein bands in SDS-PAGE gels was determined using Image J-brand software, version 1.30. This is a public domain program that can be obtained from the National Institutes of Health (Bethesda, Md.).
SDS-PAGE analysis with Coomassie staining was performed to further evaluate the predicted low rates of substrate dependent non-specific proteolysis.

Molecule	Relative rate of reaction, substrate 21F [1]	Relative rate of reaction, substrate 22F [2]	Relative rate of reaction, substrate 23F [3]	Relative rate of reaction, substrate 24F [4]	Relative rate of reaction, substrate 25F [5]	Relative rate of reaction, substrate 26F [6]	Specific reaction rate ([6]; substrate 26-F, slope of initial rate versus protease concentration, errors two standard deviations)	Proteolysis of substrate 21-F by SDS-PAGE with Coomassie staining [7]	Specific reaction rate ([3]; substrate 23-F, per supplier's reported activity unit)
TEV: tobacco etch virus protease (protein) GESLFKGPRDYNPISSTICHLTNESDGHTTSLYGIGFGPFIITNKHLFRRNNGTLLVQSLHGVFKVKNTTTLQQHLIDGRDMIIIRMPKDFPPFPQKLKFREPQREERICLVTTNFQTKSMSSMVSDTSCTFPSSDGIFWKHWIQTKDGQCGSPLVSTRDGFIVGIHSASNFTNTNNYFTSVPKNFMELLTNQEAQQWVSGWRLNADSVLWGGHKVFMSKPEEPFQPVKEATQLMNELVYSQ	0.01	0.0	−0.02	−0.01	0.0	1	17.3±0.7 moles substrate proteolyzed per mole of protease per hour	minor amount of proteolysis	–
Enterokinase: commercial protease used for removing fusion tags (protein, UniProt P98072 2-800; P98072 801-1035, looked up) Enteropeptidase non-catalytic …: GSKRSVPSRHRSLTTYEVMFAVLFVILVALCAGLIAVSWLSIQGSVKDAAFGKSHEARGTLKIISGATYNPHLQDKLSVDFKVLAFDIQQMIDDIFQSSNLKNEYKNSRVLQFENGSIIVIFDLLFDQWVSDKNVKEELIQGIEANKSSQLVTFHIDLNSIDITASLENFSTISPATTSEKLTTSIPLATPGNVSIECPPDSRLCADALKCIAIDLFCDGELNCPDGSDEDNKTCATACDGRFLLTGSSGSFEALHYPKPSNNTSAVCRWIIRVNQGLSIQLNFDYFNTYYADVLNIYEGMGSSKILRASLWSNNPGIIRIFSNQVTATFLIQSDESDYIGFKVTYTAFNSKELNNYEKINCNFEDGFCFWIQDLNDDNEWERTQGSTFPPSTGPTFDHTFGNESGFYISTPTGPGGRRERVGLLTLPLDPTPEQACLSFWYYMYGENVYKLSINISSDQNMEKTIFQKEGNYGQNWNYGQVTLNETVEFKVSFYGFKNQILSDIALDDISLTYGICNVSVYPEPTLVPTPPPELPTDCGGPHDLWEPNTTFTSINFPNSYPNQAFCIWNLNAQKGKNIQLHFQEFDLENIADVVEIRDGEGDDSLFLAVYTGPGPVNDVFSTTNRMTVLFITDNMLAKQGFKANFTTGYGLGIPEPCKEDNFQCKDGECIPLVNLCDGFPHCKDGSDEAHCVRLFNGTTDSSGLVQFRIQSIWHVACAENWTTQISDDVCQLLGLGTGNSSVPTFSTGGGPYVNLNTAPNGSLILTPSQQCLEDSLILLQCNYKSCGKKLVTQEVSPK Enteropeptidase catalytic …: IVGGSDSREGAWPWVVALYFDDQQVCGASLVSRDWLVSAAHCVYGRNMEPSKWKAVLGLHMASNLTSPQIETRLIDQIVINPHYNKRRKNNDIAMMHLEMKVNYTDYIQPICLPEENQVFPPGRICSIAGWGALIYQGSTADVLQEADVPLLSNEKCQQQMPEYNITENMVCAGYEAGGVDSCQGDSGGPLMCQENNRWLLAGVTSFGYQCALPNRPGVYARVPRFTEWIQSFLH	0.5	1.3	1	0.2	–	1	–	–	0.130±0.007 nmole substrate proteolyzed per unit enzyme per hour
